What was measured:
α-bungarotoxin [1] = target: T1, α-bungarotoxin (UniProt P60615 22-95)
T1 sequence: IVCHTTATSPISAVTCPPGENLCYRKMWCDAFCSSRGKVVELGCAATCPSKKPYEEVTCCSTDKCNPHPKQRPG

α-bungarotoxin [2] = target: T1, α-bungarotoxin; test: stopped-flow spectrofluorimetry
α-bungarotoxin [3] = target: T1, α-bungarotoxin; test: stopped-flow spectrofluorimetry, excitation 280 nm, emission above 305 nm

B1: Aplysia californica acetylcholine binding protein (AChBP) (other)
chain: HSQANLMRLKSDLFNRSPMYPGPTKDDPLTVTLGFTLQDIVKADSSTNEVDLVYYEQQRWKLNSLMWDPNEYGNITDFRTSAADIWTPDITAYSSTRPVQVLSPQIAVVTHDGSVMFIPAQRLSFMCDPTGVDSEEGATCAVKFGSWVYSGFEIDLKTDTDQVDLSSYYASSKYEILSATQTRQVQHYSCCPEPYIDVNLVVKFRERRAGNGFFRNLFD
- Kd (α-bungarotoxin [1]): 250 nM
- koff (α-bungarotoxin [2]): 0.32 s⁻¹
- kon (α-bungarotoxin [3]): 1e+06 M⁻¹ s⁻¹

— patent publication US20050143285A1 (published 2005)
